B1: VHH_(NLRP1 PYD) 2 (VHH)
VHH: QVQLVESGGGLVQTGGSLRLSCVASGGTFSRFTMAWFRQAPGKEREFVAGVSWSGGLTHYSDSVKGRFTISRDNAKNTLYLQMSSLKPEDTAVYYCYGQSTVAGATIDYWGQGTQVTVSS
notes: Alpaca nanobody raised against His-NLRP1^PYD, selected by phage display on GST-NLRP1^PYD; cloned into a pHEN6-based periplasmic vector with C-terminal HA-His6; also called VHHPYD 2; NLRP1^PYD nanobody 2; source: E. coli WK6, periplasmic extract, purified (Ni-NTA, desalting); not shown: HA, C-terminal, kept
B2: VHH_(NLRP1 PYD 1) (VHH)
VHH: QVQLVESGGGLVEAGGSLRLSCAASGRTFSNYALSWFRQAPGKERELVAAISWSGDYTYYADSVKGRFTISRDNAKNTVYLQMHSLKPEDTAVYYCNADSRSGTYSPSSGSWGQGTQVTVSS
notes: Alpaca nanobody raised against His-NLRP1^PYD, selected by phage display on GST-NLRP1^PYD; cloned into a pHEN6-based periplasmic vector with C-terminal HA-His6; also called VHHPYD 1; NLRP1^PYD nanobody 1; source: E. coli WK6, periplasmic extract, purified (Ni-NTA, desalting); not shown: HA, C-terminal, kept

Biological target: T1, GST-NLRP1^PYD (Homo sapiens, UniProt Q9C000)
T1 construct: NLRP1, human, pyrin domain (PYD), aa 1-92; Vector: customised destination vector based on pGEX-2T; also called GST-NRLP1^PYD; source: E. coli BL21, purified (glutathione resin, gel filtration)
Assay: ELISA; GST-NLRP1^PYD or GST in PBS immobilised on ELISA plates at 1 ug/ml overnight; serial tenfold dilutions of HA-tagged nanobodies in 10% FBS/PBS; detected with HRP-coupled anti-HA and TMB, absorption at 450 nm
Conditions: both partners purified

T1 sequence (Q9C000 1-92): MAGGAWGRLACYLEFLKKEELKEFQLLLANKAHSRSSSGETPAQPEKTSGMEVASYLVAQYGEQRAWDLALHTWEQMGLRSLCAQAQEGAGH

Row | Binder | binding result
1 | B1 | binds
2 | B2 | binds
